Test results: US5198419A, “Formulated medicines for enhancing the efficacy of beta-lactam antibiotics in prophylaxis and treatment against infectious disease due to pathogenic bacteria” (Immuno Japan Inc., priority 1989, dated 1993)
Entries after “also recorded” stand apart in the source; their conditions may differ.

Key:
[1] = tested on: Klebsiella pneumoniae strain 3K25; assay: Example 8: dose-response relationship of potentiation of cefpodoxime efficacy by oral lactoferrin; format: in vivo, mice, ddY
Method: (§1) For ED50 values, a range of amounts of antibiotics is given in the examples (e.g., penicillin G: 0.4, 0.2, 0.1, 0.05 mg/mouse). To calculate the ED50, groups of mice in the monotherapy groups and groups of mice in the combined therapy groups received the indicated amount of antibiotic (e.g., one group received 0.4 mg/mouse of penicillin G, one group received 0.2 mg/mouse of penicillin G, one group received 0.1 mg/mouse of penicillin G, one group received 0.05 mg/mouse of penicillin G).
The dose-response relationship of the potentiation of the antibiotic efficacy by lactoferrin was determined using the same experimental infection system as described in Example 1. Male ddY mice, five weeks of age, weighing approximate 20.3 g, were randomly allocated into groups (n=10); the first group was assigned to the cefpodoxime control (5 mg/mouse). The mice were intraperitoneally injected with pneumobacillus, Klebsiella pneumoniae strain 3K25, 3×10^5 per mouse. One hour after the injection, the antibiotic cefpodoxime (1, 0.5, 0.25 and 0.125 mg/mouse) was orally given in 0.2 ml of physiological saline.

[2] = bovine lactoferrin, oral; cited from earlier work
[3] = tested on: Klebsiella pneumoniae 3K25; assay: Example 7: experimental infection in mice, cefaclor with or without native lactoferrin; format: in vivo, strain ddY; details: simultaneous oral beta-lactam antibiotics with lactoferrin one hour after i.p. injection (as shown in Table 3)
[4] = tested on: Klebsiella pneumoniae strain 3K25; assay: Example 5: experimentally infected fed and fasted mice, cefpodoxime with or without native lactoferrin; format: in vivo, strain ICR; details: cefpodoxime
Method: as §1
Male mice, strain ICR, five weeks old, weighing an average of 21.6 g, were randomly allocated into sixteen groups (n =6). During the next 24 hours, eight groups were allowed free access to diet and water, while the other eight groups were fasted overnight. On the next day, all the mice were injected with 1.4×10^6 CFU/mouse of Klebsiella pneumoniae strain 3K25. The minimal lethal dose of this bacterium is […], and thus the injected dose was 1,000 times greater than the minimal lethal dose. Immediately after the injection, the fed groups were orally given cefpodoxime (10, 5, 2.5, and 1.25 mg/mouse) simultaneously with or without native lactoferrin (0.2 mg/mouse). The fasted groups also were orally given cefpodoxime (10, 5, 2.5, and 1.25 mg/mouse) simultaneously with or without native lactoferrin (0.2 mg/mouse).

[5] = tested on: Escherichia coli #11; assay: Example 6: experimental infection in mice, ampicillin with or without apolactoferrin; format: in vivo, strain ddY; details: simultaneous administration of lactoferrin with ampicillin
Method: as §1
Male mice, strain ddY, five weeks old, weighing an average of 21.5 g, were randomly allocated into groups (n=10), and they were intraperitoneally injected with Escherichia coli #11, 1.2×10^6 CFU/mouse. Immediately after the injection, the untreated control group was orally given 0.2 ml of distilled water, the second through the fifth groups were treated once orally by ampicillin (8, 4, 2 and 1 mg/mouse), and the sixth through the ninth groups with ampicillin (4, 2, 1 and 0.5 mg/mouse) plus apolactoferrin (1 mg/mouse) in 0.2 ml of distilled water. The mice were fed ad libitum and observed for one week under the same conditions as described in Example 1. […] It is apparent from the results that lactoferrin not only potentiates the efficacy of the cephalosporin class but also the penicillin class of antibiotics.

[6] = tested on: Klebsiella pneumoniae strain 3K25; assay: Example 1: experimental infection in mice, cefpodoxime with or without native lactoferrin; format: in vivo, strain ICR; details: lactoferrin alone 0.4 mg/mouse p.o.; within 24 hours / one day after injection
Method: as §1
Sixty male mice, strain ICR, four weeks of age, body weight 19±1.0 g (mean±the standard deviation) were randomly divided into ten groups (n=6); the first group was assigned to the untreated control, the second group to the lactoferrin treated control group, the third through the sixth groups to the cephalosporin treated controls, and the seventh through the tenth groups to the combined treatment group of cephalosporin and lactoferrin. The mice were intraperitoneally injected with pneumobacillus, Klebsiella pneumoniae strain 3K25, 5×10^6 colony forming units (CFU) per mouse. The antibiotics used were orally active cephalosporin or cefpodoxime, and the bovine lactoferrin was the native one derived from cheese whey with 28.5% iron-saturation. […]

[7] = Stability of bovine lactoferrin powder; format: physicochemical
Excerpt: The stability of bovine lactoferrin powder is also not affected by the degree of iron-saturation. […] Much care should be taken to avoid lactoferrin denaturation, especially denaturation by heat, in any formulating process. Due to its high stability, it is readily processed into mixed formulations with beta-lactam antibiotics for oral administration in any proportion, for example, freely mixed with lactose, cellulose, cellulose derivatives, magnesium stearate, and talc. One of the best ways to make lactoferrin liquid formulations, such as tincture and syrup, is adjustment of the pH to pH 3.1-4.0 by the addition of lactic acid to avoid bacterial contamination, then add paraaminobenzoic acid derivatives as preservatives against fungal contamination, and filtration through membrane filters (e.g., with pore size of 0.2 μm) into aseptic bottles.

[8] = tested on: pathogenic bacteria; assay: Potentiation of beta-lactam antibiotics by lactoferrin at the whole animal level (general statements); format: in vivo
Method: Co-administration of lactoferrin with beta-lactam antibiotics greatly reduces the antibiotic requirement, that is, 1/2 to 1/6 of the amount of the antibiotics required in monotherapy in combination with lactoferrin (combined therapy) show the same curative effects as the antibiotic treatment alone (monotherapy). Oral administration of lactoferrin is an effective route, and the dose of lactoferrin required for this potentiation is 0.5-100 mg/kg and the optimum dose may be 1-10 mg/kg.
Apolactoferrin can be utilized as a raw material to prepare lactoferrin with desired degrees of iron-saturation by adding calculated amounts of ferric ions in the presence of carbonium anions. […] Therefore, lactoferrins with various degrees of iron-saturation can be successfully utilized in this invention. The efficacy potentiation of beta-lactam antibiotics by lactoferrin is independent of the degree of the iron-saturation of lactoferrin.
When lactoferrin is orally dosed to potentiate the efficacy of beta-lactam antibiotics, either the combined formulation with the antibiotics or the formulation containing lactoferrin alone as an active ingredient can be successfully used. When lactoferrin is dosed separately from the antibiotics, the timing of the dosing is very important. The potentiating effect is the strongest when lactoferrin is given from six hours before to one hour after the antibiotic administration.

[9] = tested on: Klebsiella pneumoniae strain 3K25; assay: Example 2: experimental infection in mice, cefpodoxime with or without apolactoferrin; format: in vivo, strain ICR; details: lactoferrin treated control (iron free apolactoferrin 0.4 mg p.o.)
Method: as §1
Sixty male mice, strain ICR, five weeks of age, weighing 19.3±1.1 g (mean body weight±the standard deviation) were randomly allocated into ten groups (n=6), and intraperitoneally injected with pneumobacilli, Klebsiella pneumoniae strain 3K25, 5×10^5 CFU/mouse. One hour after the injection, the first group was orally given 0.2 ml of physiological saline, the second group orally given iron free apolactoferrin (0.4 mg) in 0.2 ml of saline, the third through the sixth groups were orally given cefpodoxime (4, 2, 1, and 0.5 mg/mouse) in 0.2 ml saline, and the seventh through the tenth groups orally given the admixture of cefpodoxime (4, 2, 1, and 0.5 mg/mouse) and apolactoferrin (0.4 mg) in 0.2 ml of saline. Mice were fed ad libitum and observed for a week under the same conditions as described in Example 1.

[10] = tested on: Staphylococcus aureus 209P; assay: Example 9: time-schedule of lactoferrin administration and efficacy of amoxicillin; format: in vivo, mice, ddY; details: lactoferrin dosed from 12 hours before to three hours after the injection
Method: as §1
The effect of time-schedule of lactoferrin administration on the potentiation of antibiotic efficacy was examined using an experimental model similar to Example 1. Male ddY mice (n=10), five weeks old, weighing an average of 21.9 g, were used in this experiment. On day 0 all the mice were intraperitoneally injected with 1.2×10^5 CFU/mouse of Staphylococcus aureus 209P. Amoxicillin ([…], 0.625 mg/mouse) was orally given one hour after the injection.

[11] = tested on: Klebsiella pneumoniae strain 3K25; assay: Example 3: experimental infection in mice, cefaclor with or without hololactoferrin; format: in vivo, strain ICR; details: hololactoferrin alone 0.4 mg/mouse p.o.
Method: as §1
Sixty male mice, strain ICR, five weeks of age, weighing 21.3±1.5 g (mean±the standard deviation) were randomly allocated into ten groups (n=6), and intraperitoneally injected with Klebsiella pneumoniae strain 3K25, 1×10^6 CFU/mouse. One hour after the injection, the first group was orally given 0.2 ml of physiological saline, the second group orally given hololactoferrin (100% ferric ion saturated lactoferrin, 0.4 mg/mouse), the third through the sixth groups orally given cefaclor (2.0, 1.0, 0.5 and 0.25 mg/mouse each) in 0.2 ml of saline, and the seventh through the tenth groups orally given cefaclor (2.0, 1.0, 0.5 and 0.25 mg/mouse each) and hololactoferrin (100% iron saturated lactoferrin, 0.4 mg/mouse) in 0.2 ml of saline. The mice were fed ad libitum and observed for one week under the same conditions as described in Example 1.

B1: lactoferrin: bovine lactoferrin, the native one derived from cheese whey with 28.5% iron-saturation (protein, UniProt P24627 20-708, looked up)
Lactotransferrin: APRKNVRWCTISQPEWFKCRRWQWRMKKLGAPSITCVRRAFALECIRAIAEKKADAVTLDGGMVFEAGRDPYKLRPVAAEIYGTKESPQTHYYAVAVVKKGSNFQLDQLQGRKSCHTGLGRSAGWIIPMGILRPYLSWTESLEPLQGAVAKFFSASCVPCIDRQAYPNLCQLCKGEGENQCACSSREPYFGYSGAFKCLQDGAGDVAFVKETTVFENLPEKADRDQYELLCLNNSRAPVDAFKECHLAQVPSHAVVARSVDGKEDLIWKLLSKAQEKFGKNKSRSFQLFGSPPGQRDLLFKDSALGFLRIPSKVDSALYLGSRYLTTLKNLRETAEEVKARYTRVVWCAVGPEEQKKCQQWSQQSGQNVTCATASTTDDCIVLVLKGEADALNLDGGYIYTAGKCGLVPVLAENRKSSKHSSLDCVLRPTEGYLAVAVVKKANEGLTWNSLKDKKSCHTAVDRTAGWNIPMGLIVNQTGSCAFDEFFSQSCAPGADPKSRLCALCAGDDQGLDKCVPNSKEKYYGYTGAFRCLAEDVGDVAFVKNDTVWENTNGESTADWAKNLNREDFRLLCLDGTRKPVTEAQSCHLAVAPNHAVVSRSDRAAHVKQVLLHQQALFGKNGKNCPDKFCLFKSETKNLLFNDNTECLAKLGGRPTYEEYLGTEYVTAIANLKKCSTSPLLEACAFLTR
modifications: 28.5% iron-saturated
notes: bovine lactoferrin, the native one derived from cheese whey with 28.5% iron-saturation
potentiation of antibiotic efficacy ([1]; lactoferrin doses from 50 to 0.05 mg per mouse, cefpodoxime): significantly potentiated the antibiotic efficacy at the same magnitude regardless of the dose
lactoferrin dose at which potentiation reaches a plateau ([1]; with cefpodoxime): 0.05 mg per mouse
excretion in intact form in feces [2]: considerable amounts are excreted in intact form in feces
resistance to gastrointestinal digestion [2]: highly resistant to gastrointestinal digestion
potentiation of the antibiotic efficacy versus antibiotic treatment alone [3]: 2.8 fold
rate of potentiation of antibiotic efficacy ([4]; fasted state): five fold
rate of potentiation of antibiotic efficacy ([4]; fed state): three fold
potentiation of ampicillin efficacy in vivo [5]: eight fold
mortality [6]: all mice in those groups died by one day post-injection; also recorded: died within 24 hours
effect of the degree of iron-saturation on stability [7]: not affected
stability ([7]; room temperature): very stable at room temperature
effect of the degree of iron-saturation on potentiation of beta-lactam antibiotics ([8]; 100%, 28% and 0% iron-saturated lactoferrin): does not affect the potentiation
potentiating effect by timing of lactoferrin dosing ([8]; 12 hours before or six hours after the antibiotic administration): significant but less potent effect
potentiating effect by timing of lactoferrin dosing ([8]; from six hours before to one hour after the antibiotic administration): the strongest
mortality within 24 hours [9]: All the mice died within 24 hours
potentiation of amoxicillin's efficacy [10]: significantly potentiated

B2: hololactoferrin: 100% ferric ion saturated lactoferrin (protein, UniProt P24627 20-708, looked up)
Lactotransferrin: B1 Lactotransferrin
modifications: 100% ferric iron saturated
notes: 100% ferric ion saturated lactoferrin
mortality within 24 hours [11]: died within 24 hours
